Measurements reported in patent US20210221878A1.

Experiments:
[1] = molecular target: αSyn WT PFF (preformed fibrils of recombinant wild-type human α-synuclein) (human) (UniProt P37840); assay: ratio of monomer to PFF binding potency, solution competition ELISA
[2] = molecular target: αSyn WT PFF (preformed fibrils of recombinant wild-type human α-synuclein) (human) (UniProt P37840); assay: solution competition ELISA, free antibody captured on PFF plate; binding potency, PFF (ng/ml)
[3] = molecular target: full-length human recombinant wild-type α-synuclein monomer (human) (UniProt P37840); assay: solution competition ELISA, free antibody captured on PFF plate; binding potency, monomer (ng/ml)

| Mono/PFF Ratio [1] | EC50 [2] | EC50 [3] | Substance |
| --- | --- | --- | --- |
| 38 | 0.0016 µg/mL | 0.062 µg/mL | LB509 (antibody) |
| 0.27 | 0.0292 µg/mL | 0.008 µg/mL | MJFR1 (antibody) |
| 7230 | 0.00051 µg/mL | 3.66 µg/mL | MJFR14642 (antibody) |
| 0.47 | 0.109 µg/mL | 0.0512 µg/mL | Syn303 (antibody) |
